Measurements reported in PMC12426278.

Columns and labels:
[1] = target: huCD147-Strep (soluble extracellular domain of human CD147, Strep-tag II) (human); assay: BLI; Octet Red96e; […] (20 μg/mL) […]; 25 mM HEPES, 150 mM NaCl pH 7.5, 0.04% Tween-20; global 1:1 model
[2] = target: huCD147mt-Strep (glycosylation-deficient soluble extracellular domain of human CD147, Strep-tag II) (human); assay: as above

Row | Substance | Kd [1] [nM] | Kd [2] [nM]
1 | [change] (soluble extracellular domain of H1N1 HA) (from UniProt P03452 18-528) (domain or fragment) | 700 | 500
2 | [change] (soluble extracellular domain of H9N2 HA) (domain or fragment) | 310 | 200
